The source of these data is PMC6783867 (2019).

B1: 10th and 11th cadherin repeat domains of the Plutella xylostella cadherin (PxCR10–11), GST-tagged (domain or fragment)
chain: QAVDLKNEGCTADAGDCYSVYYRIVSDISESFKVDAEKNIISLTRELDRADGVRHIVTVAASNQPDATDNPTNVLTVTVFVREANPRPIFENEVYTAGISTMDSINRELFTVKATRTENLSIKYTIDPSSMVADTSLQSVQGSAFELDADSGVLTLKIKPTASMRGMFEFEVIATDTEQATDRAEVKVYIVSDNNRVSFLFQNQLTQVEQYRDFIAQTLSAGFKMACNIDEVIPSTDAGGSPVEGVTEVRAHFIRDNQPVTADVIEALRSDVELLTNIQRTLNTNLLVLTDFVTDISPSVTADAARVIIYLLGALSAALALALACLVLLAAYWFRTRALNRRLEA
B2: Bacillus thuringiensis insecticidal protein (Bt toxin) Cry2Ab30 (natural protein)
chain: MNSVLNSGRTTICDAYNVAAHDPFSFQHKSLDTVQKEWTEWKKNNHSLYLDPIVGTVASFLLKKVGSLVGKRILSELRNLIFPSGSTNLMQDILRETEKFLNQRLNTDTLARVNAELTGLQANVEEFNRQVDNFLNPNRNAVPLSITSSVNTMQQLFLNRLPQFQMQGYQLLLLPLFAQAANLHLSFIRDVILNADEWGISAATLRTYRDYLKNYTRDYSNYCINTYQSAFKGLNTRLHDMLEFRTYMFLNVFEYVSIWSLFKYQSLLVSSGANLYASGSGPQQTQSFTSQDWPFLYSLFQVNSNYVLNGFSGARLSNTFPNIVGLPGSTTTHALLAARVNYSGGISSGDIGASPFNQNFNCSTFLPPLLTPFVRSWLDSGSDREGVATVTNWQTESFETTLGLRSGAFTARGNSNYFPDYFIRNISGVPLVVRNEDLRRPLHYNEIRNIASPSGTPGGARAYMVSVHNRKNNIHAVHENGSMIHLAPNDYTGFTISPIHATQVNNQTRTFISEKFGNQGDSLRFEQNNTTARYTLRGNGNSYNLYLRVSSIGNSTIRVTINGRVYTATNVNTTTNNDGVNDNGARFSDINIGNVVASSNSDVPLDINVTLNSGTQFDLMNIMLVPTNISPLY

For assay [1], the target named is Cry2Ab–AVM bioconjugate (Cry2Ab30 conjugated with 4''-O-succinyl avermectin) (Bacillus thuringiensis, 4''-O-succinyl avermectin joined by an amide bond to amino groups of Cry2Ab30; sites and number not determined (Lys 232 named as potential site from a homology model)). As to the kind of experiment: BLI. For orientation: In BLI a coated tip is dipped into the sample, and binding shifts an interference pattern.

Assay [2] deals with B1. As to the kind of experiment: BLI.

A word on the koff: it is a measure of how fast the partners let go of each other. Read a high koff as fast dissociation. In assay [1], B1 returned a koff of 0.000569 s⁻¹.

In assay [2], B2 showed a koff of 0.000567 s⁻¹.
